Results on two molecules are retold here after publication doi:10.1101/2022.05.23.493104 (bioRxiv, 2022).

Series [1] concerns the molecule itself. Description: negative stain electron microscopy.
Series [2] has as its target T1, CAV1-His (wild type caveolin-1, E. coli expression) (human, UniProt Q03135 1-178).
T1 sequence: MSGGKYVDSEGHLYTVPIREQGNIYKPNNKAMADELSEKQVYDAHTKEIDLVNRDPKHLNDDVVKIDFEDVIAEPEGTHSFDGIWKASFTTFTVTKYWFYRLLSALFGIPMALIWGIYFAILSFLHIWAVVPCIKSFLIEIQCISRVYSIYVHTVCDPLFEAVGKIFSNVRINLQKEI
Nature of the series: negative stain electron microscopy.

B1: P132L-mVenusHis (caveolin-1 P132L with C-terminal mVenus, E. coli expression) (natural protein, human)
chain: MSGGKYVDSEGHLYTVPIREQGNIYKPNNKAMADELSEKQVYDAHTKEIDLVNRDPKHLNDDVVKIDFEDVIAEPEGTHSFDGIWKASFTTFTVTKYWFYRLLSALFGIPMALIWGIYFAILSFLHIWAVVLCIKSFLIEIQCISRVYSIYVHTVCDPLFEAVGKIFSNVRINLQKEI
Take B1: the binding result in series [1] and in series [2] was “binds” throughout.

B2: P132L-His (caveolin-1 P132L, E. coli expression) (natural protein, human)
chain: MSGGKYVDSEGHLYTVPIREQGNIYKPNNKAMADELSEKQVYDAHTKEIDLVNRDPKHLNDDVVKIDFEDVIAEPEGTHSFDGIWKASFTTFTVTKYWFYRLLSALFGIPMALIWGIYFAILSFLHIWAVVLCIKSFLIEIQCISRVYSIYVHTVCDPLFEAVGKIFSNVRINLQKEI
For the molecule B2, in series [1], the binding result is given as “binds”.
